Assay results from paper PMC9379584 (iScience, 2022).
Values joined by “and” are separate entries in the source; they are usually repeats but may differ in a detail not shown here. Identical values can stand only once. Like-named read-outs stand apart in the source and are kept apart here.

How the values were obtained:
INS-1E cells [1] = assay: Glucose-stimulated insulin secretion; assay type: cell-based, rat; conditions: read-out: IC50, inhibition of GSIS; INS-1E, 20 mM glucose, 90 min
mouse pancreatic islets [2] = assay: Glucose-stimulated insulin secretion; assay type: cell-based; conditions: read-out: IC50, inhibition of GSIS; wildtype mouse islets, 20 mM glucose, 90 min
α2A-AR [3] = target: T1, α2A-AR (Rattus norvegicus, UniProt P22909); assay type: cell-based; conditions: nanoBRET
T1 sequence (P22909 1-465): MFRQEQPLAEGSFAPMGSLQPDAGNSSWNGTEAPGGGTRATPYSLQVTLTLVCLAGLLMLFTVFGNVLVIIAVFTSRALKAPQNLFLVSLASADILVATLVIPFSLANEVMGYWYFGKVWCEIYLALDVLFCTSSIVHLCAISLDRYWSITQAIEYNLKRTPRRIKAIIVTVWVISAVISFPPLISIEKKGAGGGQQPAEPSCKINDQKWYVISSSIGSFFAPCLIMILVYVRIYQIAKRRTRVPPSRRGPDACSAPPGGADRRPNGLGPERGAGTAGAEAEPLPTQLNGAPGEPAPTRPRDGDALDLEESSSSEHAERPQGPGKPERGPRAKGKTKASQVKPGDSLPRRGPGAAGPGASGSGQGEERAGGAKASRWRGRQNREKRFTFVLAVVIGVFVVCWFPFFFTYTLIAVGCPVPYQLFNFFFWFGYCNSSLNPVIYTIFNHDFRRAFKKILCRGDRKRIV

[4] = test system: α2A-AR KO INS-1E-derived cell line; assay: HTRF cAMP assay in α2A-AR KO INS-1E-derived cells; assay type: cell-based, rat
INS-1E cells [5] = conditions: cited from earlier work
α2A-AR [6] = target: T1, α2A-AR; assay: cell-based; conditions: nanoBRET
mouse pancreatic islets [7] = conditions: cited from earlier work
INS-1E cells [8] = assay: HTRF cAMP assay in INS-1E cells; assay type: cell-based, rat; conditions: normalized to DA's efficacy in parental INS-1E
[9] = target: IL6-HiBiT-α2A-AR-HaloTag (rat α2A-adrenergic receptor) (rat) (UniProt P22909); assay: FRET or BRET
[10] = target: IL6-HiBiT-D2R-HaloTag (human dopamine D2 receptor) (human) (UniProt P14416); assay: FRET or BRET
[11] = target: IL6-HiBiT-D2R-HaloTag (human dopamine D2 receptor) (human, UniProt P14416 1-443, HaloTag NanoBRET 618 ligand bound to the HaloTag); assay: FRET or BRET
[12] = α2A-AR KO versus parental INS-1E
[13] = read-out: IC50, inhibition of GSIS, ref Aslanoglou et al. (2021)
[14] = read-out: IC50, inhibition of GSIS, ref Aslanoglou et al., 2021

Chain of IL6-HiBiT-D2R-HaloTag (human dopamine D2 receptor) (human) (P14416 whole entry): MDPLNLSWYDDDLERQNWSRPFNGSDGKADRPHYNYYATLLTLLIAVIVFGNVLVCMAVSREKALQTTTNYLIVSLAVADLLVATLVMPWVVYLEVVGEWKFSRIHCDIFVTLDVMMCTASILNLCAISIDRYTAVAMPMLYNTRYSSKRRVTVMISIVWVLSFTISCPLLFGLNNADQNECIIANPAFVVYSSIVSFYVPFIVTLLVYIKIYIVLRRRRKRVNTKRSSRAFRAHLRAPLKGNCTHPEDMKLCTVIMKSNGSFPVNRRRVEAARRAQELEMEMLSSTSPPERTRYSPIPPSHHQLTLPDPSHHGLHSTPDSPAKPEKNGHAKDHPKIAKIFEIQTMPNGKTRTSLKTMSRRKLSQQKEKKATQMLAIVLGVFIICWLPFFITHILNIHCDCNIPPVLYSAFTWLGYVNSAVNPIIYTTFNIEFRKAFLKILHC
Chain of IL6-HiBiT-D2R-HaloTag (human dopamine D2 receptor) (P14416 whole entry): as above

Molecule `Clc1cccc(Cl)c1N=C1NCCN1` [Clonidine, clonidine] has an IC50 (INS-1E cells [1]) of 9.06 nM and an IC50 (mouse pancreatic islets [2]) of 7.36 nM.

For `NCCc1ccc(O)c(O)c1` [DA, dopamine], the “β-arrestin1 recruitment to α2A-AR” value (α2A-AR [3]) was “negligible recruitment”, the IC50 ([4]; read-out: IC50, inhibition of cAMP production, α2A-AR KO) was 1500 nM and the “increase of potency in diminishing cAMP by α2A-AR KO” value [4, 12] was 1.7 fold. For the same molecule, the “reduction of efficacy in lowering cAMP by α2A-AR KO” value [4, 12] was 57% and 57.2%, the “Emax, inhibition of cAMP production” value ([4]; α2A-AR KO, normalized to DA's efficacy in parental INS-1E) was 57.15 [46.22–88.79] % DA and the IC50 (INS-1E cells [5]; [13]) was 1490 nM. The IC50 (INS-1E cells [5]; [14]) was 1500 nM, the “pIC50, inhibition of GSIS” value (INS-1E cells [5]; ref Aslanoglou et al. (2021)) was 5.83 and the EC50 (α2A-AR [6]; EC50, Gαi2 recruitment to α2A-AR, Gαi2) was 1040 nM. The EC50 (α2A-AR [6]; EC50, Gαi3 recruitment to α2A-AR, Gαi3) was 1030 nM, the EC50 (α2A-AR [6]; EC50, GαoA recruitment to α2A-AR, GαoA) was 836 nM and the EC50 (α2A-AR [6]; EC50, GαoB recruitment to α2A-AR, GαoB) was 945 nM. The EC50 (α2A-AR [6]; EC50, Gαz recruitment to α2A-AR, Gαz) was 666 nM, the EC50 (α2A-AR [6]; pEC50, GαoB recruitment to α2A-AR, GαoB) was 933 nM and the IC50 (mouse pancreatic islets [7]; [13]) was 1300 nM. The IC50 (mouse pancreatic islets [7]; [14]) was 1300 nM, the “pIC50, inhibition of GSIS” value (mouse pancreatic islets [7]; ref Aslanoglou et al. (2021)) was 5.89 and the “Emax, inhibition of cAMP production” value (INS-1E cells [8]) was 100.00 % DA.

“NanoLuc-Gαi1(91) (from UniProt P63096 1-354) (natural protein)” gave an Emax of recruitment with bromocriptine (% of the NE response) (% of NE response) [9] of 15.4.

With “NanoLuc-Gαi1(91) (from UniProt P63096 1-354) (natural protein; other documents disagree on this pair)” the EC50 of the agonist NE for recruitment [10] was 4900 nM, the EC50 of the agonist bromocriptine for recruitment [10] was 104 nM and the Emax of recruitment with bromocriptine (% of the DA response) (% of DA response) [10] was 60.

Molecule “NanoLuc-Gαi2(91) (from UniProt P04899 1-355) (natural protein)” has an Emax of recruitment with bromocriptine (% of the NE response) (% of NE response) [9] of 43.8.

Work on “NanoLuc-Gαi2(91) (from UniProt P04899 1-355) (natural protein; other documents disagree on this pair)” yielded an EC50 of the agonist DA for recruitment [10] of 2.88 nM, an EC50 of the agonist NE for recruitment [10] of 25.3 nM and an EC50 of the agonist bromocriptine for recruitment [10] of 21.6 nM. It also gave an Emax of recruitment with bromocriptine (% of the DA response) (% of DA response) [10] of 89.3.

For “NanoLuc-Gαi3(91) (from UniProt P08754 1-354) (natural protein)”, the Emax of recruitment with bromocriptine (% of the NE response) (% of NE response) [9] was 12.7.

Work on “NanoLuc-Gαi3(91) (from UniProt P08754 1-354) (natural protein; other documents disagree on this pair)” yielded an EC50 of the agonist NE for recruitment [10] of 32600 nM, an EC50 of the agonist bromocriptine for recruitment [10] of 84.3 nM and an Emax of recruitment with bromocriptine (% of the DA response) (% of DA response) [10] of 64.2.

“NanoLuc-GαoA(91) (from UniProt P09471 1-354) (natural protein)” showed an Emax of recruitment with bromocriptine (% of the NE response) (% of NE response) [9] of 43.

“NanoLuc-GαoA(91) (from UniProt P09471 1-354) (natural protein; other documents disagree on this pair)” showed an Emax of recruitment with bromocriptine (% of the DA response) (% of DA response) [10] of 109.

“NanoLuc-Gαz(91) (from UniProt P19086 1-355) (natural protein)” showed an Emax of recruitment with bromocriptine (% of the NE response) (% of NE response) [9] of 21.2.

“NanoLuc-Gαz(91) (from UniProt P19086 1-355) (natural protein; other documents disagree on this pair)” gave an EC50 of the agonist NE for recruitment [10] of 0.07 nM, an EC50 of the agonist bromocriptine for recruitment [10] of 4.3 nM and an Emax of recruitment with bromocriptine (% of the DA response) (% of DA response) [10] of 66.5.

B1: NanoLuc-GαoB(91) (natural protein)
chain: MGCTLSAEERAALERSKAIEKNLKEDGISAAKDVKLLLLGAGESGKSTIVKQMKIIHEDGFSGEDVKQYKPVVYSNTIQSLAAIVRAMDTLGIEYGDKERKADAKMVCDVVSRMEDTEPFSAELLSAMMRLWGDSGIQECFNRSREYQLNDSAKYYLDSLDRIGAADYQPTEQDILRTRVKTTGIVETHFTFKNLHFRLFDVGGQRSERKKWIHCFEDVTAIIFCVALSGYDQVLHEDETTNRMHESLKLFDSICNNKWFTDTSIILFLNKKDIFEEKIKKSPLTICFPEYTGPSAFTEAVAYIQAQYESKNKSAHKEIYTHVTCATDTNNIQFVFDAVTDVIIAKNLRGCGLY
In the case of B1, the “EC50 of the agonist DA for recruitment” value [11] is reported as 22.4 nM, the “EC50 of the agonist NE for recruitment” value [11] is reported as 139 nM and the “EC50 of the agonist bromocriptine for recruitment” value [11] is reported as 0.27 nM.
